{"source": "paper PMC5034309", "about": "“Real-time visualization of conformational changes within single MloK1 cyclic nucleotide-modulated channels” (Nature Communications, 2016)", "biological_target": "the molecule itself", "test": "high-speed atomic force microscopy (HS-AFM); MloK1 2D crystals in lipid membrane adsorbed on mica; imaging buffer 10 mM Tris pH 7.4, 150 mM KCl, 100 uM cAMP; oscillating mode"}
{"protein": "MloK1 cyclic nucleotide-modulated channel from Mesorhizobium loti (natural protein, UniProt Q98GN8 1-355, looked up, MloK1, cyclic nucleotide-modulated potassium channel of Mesorhizobium loti, full-length, wild type; The C-terminal hexahistidine tag was cleaved with thrombin after 2D crystallisation and before HS-AFM; Residues of the thrombin site may remain; also called wild-type MloK1; not shown: His6, C-terminal, cleaved) MSVLPFLRIYAPLNAVLAAPGLLAVAALTIPDMSGRSRLALAALLAVIWGAYLLQLAATLLKRRAGVVRDRTPKIAIDVLAVLVPLAAFLLDGSPDWSLYCAVWLLKPLRDSTFFPVLGRVLANEARNLIGVTTLFGVVLFAVALAAYVIERDIQPEKFGSIPQAMWWAVVTLSTTGYGDTIPQSFAGRVLAGAVMMSGIGIFGLWAGILATGFYQEVRRGDFVRNWQLVAAVPLFQKLGPAVLVEIVRALRARTVPAGAVICRIGEPGDRMFFVVEGSVSVATPNPVELGPGAFFGEMALISGEPRSATVSAATTVSLLSLHSADFQMLCSSSPEIAEIFRKTALERRGAAASA", "values": [{"measurement": "stoichiometry N", "result": 4}]}
